From patent publication US20240343806A1 come the findings set out here.

This assay concerns the target mouse CTLA4 (mouse) (UniProt P09793). Kind of assay: flow cytometry on CHO-mCTLA4 cells; SSC vs Anti-Human-IgGFc-FITC.

Chain of mouse CTLA4 (mouse) (P09793 36-223 S182T limits assumed): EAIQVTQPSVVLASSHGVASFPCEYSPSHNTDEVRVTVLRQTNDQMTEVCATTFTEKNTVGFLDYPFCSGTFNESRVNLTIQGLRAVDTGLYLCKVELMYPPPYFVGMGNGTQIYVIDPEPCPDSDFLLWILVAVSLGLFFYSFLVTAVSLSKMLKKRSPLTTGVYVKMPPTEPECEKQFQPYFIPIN

NC registered a % cells in the FITC-positive gate of 0.133%.
